Test results from PMC8079451, “Phosphopeptide interactions of the Nbs1 N-terminal FHA-BRCT1/2 domains” (Scientific Reports, 2021).
Changes are numbered by the printed parent chain. Square brackets hold non-standard residues; d marks the D form. Primed or numbered codes have the meaning given here. Ends that are not written are not given here. Peptide text beside a SMILES is read from it. FITC′ = fluorescein isothiocyanate label; pT = C[C@@H](OP(=O)(O)O)[C@H](N)C(=O)O; pS = N[C@@H](COP(=O)(O)O)C(=O)O

B1: Chk2 pT68 phosphopeptide SLETVS(pT)QELYSIPED with C-terminal K/FITC (peptide)
peptide: SLETVS[pT]QELYSIPEDK(FITC′)
notes: Checkpoint 2 kinase (Chk2), stretch around pT68; added C-terminal lysine that carries FITC (footnote b: C-terminal K/FITC); source: synthetic peptide (GenScript)
B2: CtIP pT859 phosphopeptide WEVGFPS(pT)QTCMERGYI with C-terminal K/FITC (peptide)
peptide: WEVGFPS[pT]QTCMERGYIK(FITC′)
notes: CtIP, human, stretch around pT859; added C-terminal lysine that carries FITC (footnote b: C-terminal K/FITC); also called CtIP-859; source: synthetic peptide (GenScript)
B3: CtIP pT312,pT315 phosphopeptide TEDSLRFSDS(pT)SK(pT)PPQEELP with C-terminal K/FITC (peptide)
peptide: TEDSLRFSDS[pT]SK[pT]PPQEELPK(FITC′)
notes: CtIP, human, stretch around pT312 and pT315; added C-terminal lysine that carries FITC (footnote b: C-terminal K/FITC); also called test peptide containing the pThr312-Ser-Lys-pThr315; source: synthetic peptide (GenScript)
B4: FANCJ pT1133 phosphopeptide EDESIYF(pT)PELYDPEIE with C-terminal K/FITC (peptide)
peptide: EDESIYF[pT]PELYDPEIEK(FITC′)
notes: FANCJ helicase, stretch around pT1133; added C-terminal lysine that carries FITC (footnote b: C-terminal K/FITC); A shorter FANCJ phosphopeptide (SIYFpTPELYD) stands in the cited TopBP1 BRCT7/8 structure PDB 3AL3; also called FANCJ pThr1133 phosphopeptide; FANCJ phosphopeptide; source: synthetic peptide (GenScript)
B5: XRCC1 pS518,pT519 phosphopeptide FITC-GG-DPYAG(pSpT)DENTDSEEHQE (peptide)
peptide: {FITC′}-GGDPYAG[pS][pT]DENTDSEEHQE
notes: Gly-Gly between the N-terminal FITC and the peptide; XRCC1, human, stretch around pS518 and pT519; also called XRCC1 pSer518-pThr519 phosphopeptide; source: synthetic peptide (GenScript)
B6: CtIP pT847 phosphopeptide FITC-GG-RYIPPN(pT)PENFWEVG (peptide)
peptide: {FITC′}-GGRYIPPN[pT]PENFWEVG
notes: Gly-Gly between the N-terminal FITC and the peptide; CtIP, human, stretch around pT847; source: synthetic peptide (GenScript)
B7: XRCC1 pS485,pT488 phosphopeptide EGVQSEGQDNGAED(pS)GD(pT)EDELR with C-terminal K/FITC (peptide)
peptide: EGVQSEGQDNGAED[pS]GD[pT]EDELRK(FITC′)
notes: XRCC1, human, stretch around pS485 and pT488; added C-terminal lysine that carries FITC (footnote b: C-terminal K/FITC); also called XRCC1 pSer485-Gly-Asp-pThr488 peptide containing a C-terminal fluorescein; source: synthetic peptide (GenScript)
B8: XRCC1 pS485,pT488 phosphopeptide FITC-GG-DNGAED(pS)GD(pT)EDELR (peptide)
peptide: {FITC′}-GGDNGAED[pS]GD[pT]EDELR
notes: Gly-Gly between the N-terminal FITC and the peptide; XRCC1, human, stretch around pS485 and pT488; also called XRCC1 pSer485-Gly-Asp-pThr488 peptide with an N-terminal fluorescein tag; source: synthetic peptide (GenScript)
B9: MDC1 pS329,pT331 phosphopeptide FITC-GG-FID(pS)D(pT)DAEEE (peptide)
peptide: {FITC′}-GGFID[pS]D[pT]DAEEE
notes: Gly-Gly between the N-terminal FITC and the peptide; MDC1, human, stretch around pS329 and pT331; also called hsMDC1; source: synthetic peptide (GenScript)
B10: CtIP pS347 phosphopeptide GLDLNTSL(pS)PSLLQPGKKK with C-terminal K/FITC (peptide)
peptide: GLDLNTSL[pS]PSLLQPGKKKK(FITC′)
notes: CtIP, human, stretch around pS347; added C-terminal lysine that carries FITC (footnote b: C-terminal K/FITC); also called CtIP pSer347 peptide; pSer347 peptide; source: synthetic peptide (GenScript)
B11: hsMDC1 phosphopeptide FITC-GG-PFGFID(pS)D(pT)DVEEER (peptide)
peptide: {FITC′}-GGPFGFID[pS]D[pT]DVEEER
notes: Gly-Gly between the N-terminal FITC and the peptide; MDC1, human, one of the SDT repeats; also called second test peptide containing the pSer-Asp-pThr motif; source: synthetic peptide (GenScript)

The molecules below were run against T1, hsNbs1(384), the N-terminal 384 residues of homo sapiens Nbs1 containing the FHA-BRCT1-BRCT2 domains (human, UniProt O60934 1-384) (assay: fluorescence polarisation; 100 nM FITC-labeled phosphopeptide with increasing hsNbs1(384); room temperature, 15 min incubation; 25 mM HEPES pH 7.4, 150 mM NaCl, 1 mM EDTA, 2 mM DTT, 0.05% Tween20, 0.1% BSA; one-site model). Conditions: both partners purified.
T1 construct: gene optimised for E. coli, cloned into pET30a (NdeI/HindIII); also called wt; source: E. coli BL21(DE3) pLacI, purified (Ni-NTA, HiTrap Q, Superdex 75)
T1 sequence (looked up): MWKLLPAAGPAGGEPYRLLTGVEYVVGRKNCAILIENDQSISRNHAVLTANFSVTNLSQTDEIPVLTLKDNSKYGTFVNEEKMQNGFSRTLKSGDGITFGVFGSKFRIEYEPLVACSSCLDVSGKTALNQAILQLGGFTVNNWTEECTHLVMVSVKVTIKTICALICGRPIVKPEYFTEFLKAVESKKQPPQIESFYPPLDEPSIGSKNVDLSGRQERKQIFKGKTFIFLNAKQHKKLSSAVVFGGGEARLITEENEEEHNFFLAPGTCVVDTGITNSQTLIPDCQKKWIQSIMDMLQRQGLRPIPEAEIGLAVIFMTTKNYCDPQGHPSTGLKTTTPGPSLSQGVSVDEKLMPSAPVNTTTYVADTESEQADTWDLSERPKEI
B1 gave a Kd of 98.7 µM.
Molecule B2 has a Kd of 90.5 µM.
Molecule B3 has a Kd of 90 µM.
With B4 the Kd was 26.9 µM.
B5 showed a Kd greater than 65 µM.
Molecule B6 has a Kd of 22 µM.
B7 gave a Kd of 4.5 µM.
In the case of B8, the Kd is reported as 34.8 µM.
B9 gave a Kd of 0.65 µM.
In the case of B10, the Kd is reported as 2.64 µM.

These molecules were tested against T2, hsNbs1(384) (Homo sapiens, UniProt O60934) (assay: Fluorescence polarization (FP) binding of FITC-labeled phosphopeptides to hsNbs1(384)). Conditions: wild-type hsNbs1(384); FP assay.
T2 construct: The N-terminal 384 residues of homo sapiens Nbs1 (hsNbs1(384) containing the FHA-BRCT1-BRCT2 domains); made in house; host or cells: E. coli BL21(DE3) pLacI
T2 sequence (O60934 1-384): T1 sequence (looked up)
Description: Figure 4 Binding of FITC-labeled peptides to hsNbs1(384). Solid lines with filled data markers show normalized fluorescence polarization of the following peptides (see Table 1 for peptide sequences) as a function of the concentration of hsNbs1(384) corresponding to: CtIP-pS347 (gray); CtIP-pT847 (blue); FANCJ (green); CtIP-859 (orange); ChK2-pT68 (yellow). FP studies were performed at room temperature in 25 mM HEPES (pH 7.4), 150 mM NaCl, 1 mM EDTA, 2 mM DTT, 0.05% Tween20, 0.1% BSA after a 15-min incubation period. The data points were fit to a single-site non-cooperative model.
Phosphopeptide-protein interactions were measured by a fluorescence polarization (FP) assay. 100 nM FITC-labeled phosphopeptides were incubated at room temperature for 15 min with the indicated concentrations of hsNbs1(384) in FP buffer composed of 25 mM HEPES, 150 mM NaCl, 1 mM EDTA, 2 mM DTT, 0.05% Tween20, 0.1% BSA, pH 7.4 prior to the measurement of fluorescence polarization (POLARstar Omega microplate reader, BMG Labtech). All samples were prepared in a 96-well black flat-bottomed polypropylene microplate and each well contained 50 µL. Each well was recorded by 100 flashes with an excitation wavelength of 485 nm, and detection of emission at 520 nm. Data for the interaction of a phosphopeptide with hsNbs1(384) were analyzed using non-linear fitting with a one-site total binding model. All Kd values were determined in triplicate, and reported as mean ± standard deviation. All phosphopeptides used were synthesized by GenScript.
In the case of “DPYAG(pSpT)DENTDSEEHQE [XRCC1 pS518,pT519, FITC-labeled XRCC1 phosphopeptide with consecutively phosphorylated pSer518-pThr519]”, the “binding to Nbs1(384), in words” value is reported as “no interaction”.
For “TRVS[pS]PVFGAT [CtIP pS327, FITC-labeled CtIP pSer327 peptide that targets the tandem BRCA1 BRCT domains]”, the “binding to Nbs1(384), in words” value was “does not bind”.

Same assay, conditions: wild-type hsNbs1(384); FP; Kd 35 µM vs 4.5 µM
In the case of `CC(C)C[C@H](NC(=O)[C@H](CCC(=O)O)NC(=O)[C@H](CC(=O)O)NC(=O)[C@H](CCC(=O)O)NC(=O)[C@@H](NC(=O)[C@H](CC(=O)O)NC(=O)CNC(=O)[C@H](COP(=O)(O)O)NC(=O)[C@H](CC(=O)O)NC(=O)[C@H](CCC(=O)O)NC(=O)[C@H](C)NC(=O)CNC(=O)[C@H](CC(N)=O)NC(=O)[C@H](CC(=O)O)NC(=O)[C@H](CCC(N)=O)NC(=O)CNC(=O)[C@H](CCC(=O)O)NC(=O)[C@H](CO)NC(=O)[C@H](CCC(N)=O)NC(=O)[C@@H](NC(=O)CNC(=O)[C@@H](N)CCC(=O)O)C(C)C)[C@@H](C)OP(=O)(O)O)C(=O)N[C@@H](CCCNC(=N)N)C(=O)O` (H-EGVQSEGQDNGAED[pS]GD[pT]EDELR-OH), the “difference in Kd between N-terminal and C-terminal fluorescein-tagged XRCC1 pS485,pT488 peptides” value is reported as “eightfold”.

What follows are molecules tested against T3, hsNbs1(384)(R28S,K29S,R43A) triple mutant (human, UniProt O60934 1-384, R28S | K29S | R43A) (assay: fluorescence polarisation; 100 nM FITC-labeled phosphopeptide with increasing hsNbs1(384); room temperature, 15 min incubation; 25 mM HEPES pH 7.4, 150 mM NaCl, 1 mM EDTA, 2 mM DTT, 0.05% Tween20, 0.1% BSA; one-site model). Conditions: both partners purified.
T3 construct: source: E. coli BL21(DE3) pLacI, purified as the wild type
T3 sequence (looked up): T1 sequence (looked up) with R28S, K29S, R43A
B11 gave a Kd of 1.6 µM.
For B9, the Kd was 1.47 µM.
